# Measured values taken from paper PMC9822835 (Computational and Structural Biotechnology Journal, 2022).
# B1: VHH2^E50V&T53W (VHH)
# VHH: QVQLVESGGGLVQPGGSLRLSCAASGFTFSNYWMYWVRQAPGKGLEWVSVINWNGLITKYPDSVKGRFTISRDNAKNTLYLQMNSLKPEDTALYYCARSPSGFNRGQGTQVTVSS
# Target: Tumor necrosis factor alpha (TNF-α) (Homo sapiens, UniProt P01375)
# Assay: SPR
# Chain of Tumor necrosis factor alpha (TNF-α) (P01375 whole entry): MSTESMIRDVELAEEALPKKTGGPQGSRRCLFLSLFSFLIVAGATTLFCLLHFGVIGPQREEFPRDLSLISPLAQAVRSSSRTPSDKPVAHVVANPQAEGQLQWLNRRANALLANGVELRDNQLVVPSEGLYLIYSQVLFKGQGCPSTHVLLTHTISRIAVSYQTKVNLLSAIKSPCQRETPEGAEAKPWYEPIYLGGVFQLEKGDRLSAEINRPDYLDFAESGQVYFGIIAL
binder,measurement,value
B1,Kd,4.6 nM
